Data reported in IntAct's records for PubMed 22835334.

B1: Huntingtin-interacting protein 1 (Homo sapiens), O00291 (parent)
chain: MDRMASSMKQVPNPLPKVLSRRGVGAGLEAAERESFERTQTVSINKAINTQEVAVKEKHARTCILGTHHEKGAQTFWSVVNRLPLSSNAVLCWKFCHVFHKLLRDGHPNVLKDSLRYRNELSDMSRMWGHLSEGYGQLCSIYLKLLRTKMEYHTKNPRFPGNLQMSDRQLDEAGESDVNNFFQLTVEMFDYLECELNLFQTVFNSLDMSRSVSVTAAGQCRLAPLIQVILDCSHLYDYTVKLLFKLHSCLPADTLQGHRDRFMEQFTKLKDLFYRSSNLQYFKRLIQIPQLPENPPNFLRASALSEHISPVVVIPAEASSPDSEPVLEKDDLMDMDASQQNLFDNKFDDIFGSSFSSDPFNFNSQNGVNKDEKDHLIERLYREISGLKAQLENMKTESQRVVLQLKGHVSELEADLAEQQHLRQQAADDCEFLRAELDELRRQREDTEKAQRSLSEIERKAQANEQRYSKLKEKYSELVQNHADLLRKNAEVTKQVSMARQAQVDLEREKKELEDSLERISDQGQRKTQEQLEVLESLKQELATSQRELQVLQGSLETSAQSEANWAAEFAELEKERDSLVSGAAHREEELSALRKELQDTQLKLASTEESMCQLAKDQRKMLLVGSRKAAEQVIQDALNQLEEPPLISCAGSADHLLSTVTSISSCIEQLEKSWSQYLACPEDISGLLHSITLLAHLTSDAIAHGATTCLRAPPEPADSLTEACKQYGRETLAYLASLEEEGSLENADSTAMRNCLSKIKAIGEELLPRGLDIKQEELGDLVDKEMAATSAAIETATARIEEMLSKSRAGDTGVKLEVNERILGCCTSLMQAIQVLIVASKDLQREIVESGRGTASPKEFYAKNSRWTEGLISASKAVGWGATVMVDAADLVVQGRGKFEELMVCSHEIAASTAQLVAASKVKADKDSPNLAQLQQASRGVNQATAGVVASTISGKSQIEETDNMDFSSMTLTQIKRQEMDSQVRVLELENELQKERQKLGELRKKHYELAGVAEGWEEGTEASPPTLQEVVTEKE

Variants of: B1
Settings: with hd_human HTT

Variant	effect of a mutation on the interaction
K510L	increasing interaction
T528L	increasing interaction
